Assay: soluble on expression in E. coli; label from the status in PepcDB or PDB records

Soluble on expression in E. coli, not soluble:
MGSDKIHHHHHHMKLNLRSLEAFRETMLSGSATAAAGRMGLTQPAVSRLIAQLEQEVGFELFYRERGRLSPTPEALIIYDEIDLAFGGLERVDALARDIAAFNTGLLKIVAPPSLSESVLSTILPRFMARFPKVRIAIESRSTATARAMVANRTVDCGFVKLPLDRSDISTVTLSTSETVCVLPDTHPLTAHEVLTPELLRGEPLVLLGAGTWTRRQIDDAFRERGVRPDVRVETHTVGSACALAAGGLGVAIVNALLADNFARPGVAIRVFRPQILHEYAFMTSALAPMNRLAAAFLEEAQTFFREQAR, MGSDKIHHHHHHMKLPRFGVEEWLNVHEKNATYDIAGVSIAALSLEELFQLTQQDLNAFFQELGQKKMDYGWIEGSPQFKAEVCKLYKNIQAEQVLQTNGATGANMLALYALIEPEDHVISMYPTYQQLYDIPKSLGAQVDLWQIKEDSKWLPDLDELRQLIRPNTKMICINNAHNPTGAIMDEAYLKELVAIVESCGAYILSDEVYKTFASDKNIPAIVDLYDKGISVDSLSKAYSLPGIRVGWVASNKKVTAVLRDYRDYTMICAGVFDDMLASFALKHRQAIIQRNQEIVVDNLQILQDWLAKEPRAQAILPDHVSTSLIKLNVPMLIETFCLKLLSDYGVLVVPGNRFDIEGHVRLGYCGDTEILKAGLTRLSQCLRQFDEQAKIT, MGSDKIHHHHHHMKLRYIFYGLTSGLLFGLSSCSLNYDPIDTYSDVTEGVTDTGTKVVFKDKAAVESHLTTIYNQMRDRQEHWYVDLLLISDSHADNAYAGTTGAEVLPFENNSIEGSNSVLERDWNRYLEDVARANKLICNIDLVTDNSLTTAERAQYKAEAMIFRAMVMFDMVRLWGDFPVITTVADDITSENIEDVYEQYFPAQNTELEAYQQIEKDLLAAIQHAPDNTAGNKTLFTKSVARTLLAKIYAEKPLRDYSKVIRYCDEVKADGFELVKDFSDLFGMNAAGTDAKARNTKESILEAQFTPGSGNWCTWMFGRDLVNWNNNFTWAKWVTPSRDLINAFKKEGDQIRFQESVVYYDCNWSNYYPSDNYPFMYKCRSANSSIIKYRYADVLLLKAEALIMQDTPDLEAAAKIIDEVRERAGLGELSSSVRKDRDAMITALLNERRLELAFEGQRWFDLVRLDKVEEVMNAVYAKDSGRKSQVYAFDKNSYRLPIPQSVIDANDKIEQNPGY, MGSDKIHHHHHHMKLVKTGILPLDTQLGGGMPAGSVVSVFEEPGAGADVLSYHFTVEGATHGENVFYLATDDSSEEIREYINLYFDLDEAVWENITLLSLRASMQQEEGEKDAKDFLRKTIYDPIGGIKTILSHEEFERVVINNFTYFLANYPIEDVIALIDVLSNYAKRNQSVVMLLVTKGMFDPRTETTVKHYSDGVIELTLKEVENEVQRRLKVVKFKGILVPKAILRYELTDKGIKMESVMRVL, MGSDKIHHHHHHMKNAAISDSTLVSQYIQGNEEAFAELIKRHKSKVYSTIYLIVKDRYLAEDLLQDVFIKVIHKMKGGQYNDEGKFLPWVVRIAHNLAIDYFRRNKRYPTIVMDEGMNIFNSLNFSEDSTESIQIKGENEALIRSLIHKLPESQREVVLMRHFSDMSFQEIADSTGVSINTALGRMRYALINLRKELTKQPKPIVYDKNVYPK, MGSDKIHHHHHHMKNKIGSFVIADPNKCTGCRACEVACFTMHNQHNNVGYTVGTVDIPVIPRLYLVKGDNFCMPIQCRHCEDAPCLNSCPQKAIVKENNIMSVNEEKCIGCKTCLLACPFGAIDLLPQYEDGKEVEQVILDENKKIAYKCDLCKDNEKIACISACPQKALKLVTPIDDKKAKNRQAALSLLLTNK, MGSDKIHHHHHHMKNLPSLKNLYYLVHLHQEQNFNRAAKMCFVSQSTLSSGIQNLEEQLGYQLIERDHKSFMFTAIGEEVVERARNILTNVDDLVELVKNQGEPMTGEIRLGCIPTIAPFLLSRVVKLCQQDYPKLSLLLKEDTTERLLDALAKGELDLLILALPVDTSGFHSMKVGIDPFKMVMHKEVSQQFLQPIDYQKMPDESIFLLQAEHCITGHAITACQLGDSAKINPFAATSLHTLVQMVNSKLGTTFLPQMAIDTGILTDTDLVAMDPPGEAPYRDIGLVWRQTTSRISTFRTLGLAIQQKLLAQSLPS, MGSDKIHHHHHHMKNNTGYIIGAYPCAPSFHQKSEEEETEFWRQLSDTPDIRGLEQPCLEHLHPLGDEWLLRHTPGNWQIVVTAIMETMRRRSENGGFGLASSDEEQRKACVEYYRHLYQKINKINGNNTGKVIALELHAAPLAGNPNVAQATDAFARSLKEIANWDWSCDLVLEHCDAMTGPAPRKGFLPLVNVLETIADYDISVCINWARSAIEGRDTSLPLIHTQQAKQAGKLGALMFSGTTLDGEYGEWQDLHAPFAPFCPQSLMTEKHVKELITAAAPELLQFTGIKLLEINASADINHRINILRDGINMMKKATRR, MGSDKIHHHHHHMKNSPLNGLNGLKAFLETKPKEYHKFDPSRFIQIYKDFKNAFFEIQAKVIHVVGTNGKGSTGRFLTLLLADQNFKVLHFTSPHVFEFRERFFLNGSVVGESVLENAHQQLQSHAFSSACSYFEYATLLAVMLAKDCDYLVLEAGLGGEFDSTNALKKTLSVFTPIDYDHKEFLGDSLESIAQTKLKAMGSLSIIAPQQELVLNAAQKIAKEKHAKLIVVQNEISKGVRDYIERYHLARFLAMNLEVALKAFETLLPCNKQEVLKNLKPLNLIGRCELLSPNILIDVGHNPHSAKALKEEIKRIFNAKIILIYNCYQDKDAFLVLEILKPVIKKVLILELHEERVIKLEKLKGILETLGLEYALFEDVEENENYLVYGSFLVANAFYKRYQEKRD, MGSDKIHHHHHHMKNTVAFKTITGRDAVYKAYDAFLGNMGIPHEEVNVDTRFGKAFVIAAGKKDAPVLVLLHGSGINSVMWIKDMEKYSEHYRVYAVDLQGEPGKSDGKQLSFEGSDFDNWLHDVFAGLSVEKASIAGISLGAWLALKFAIANPQMVDKLVLLCPAGVGPQKTSFAYVSLFHMLLWGEKGVERLFRKVNGGKPIPQEIMDYQKLLGNNFNFRREQVPLFSDAELTQLTIPSILFVGQKDVMFHSLKTAQRYRNLVPDAKVIVLREAGHTLIGLVDDILEFLQN, MGSDKIHHHHHHMKPEIALNLWQLLWQEYSARVNHARTYQQMITTAGGTVANDHIAFRSLRLLVDSPQGEVNLGIDYLAQFAEALGYVAAGEYNFAQTHLYARYYRHPQQEEFNLPKLFISELIVDELPANIAQLISKTVSAIPHQLASPVTLLKKDAEIETIAKQLQQVFTRPWLPPRRSVVEEVNQVTQYGAWVLLHGYGVNHFTGYVNGQNTPEYPDIDTTASGLAHLGVPMKAEIEGNVACGLRQTATQAVTEMVTVLDDNSGVEIQIPWTYAYYEIAQRYPVEVEPGKQILFDAFLGSNAQQLFEMTRLSK, MGSDKIHHHHHHMKPHTLLIVDDDDTVAEMLELVLRGAGYEVRRAASGEEALQQIYKNLPDALICDVLLPGIDGYTLCKRVRQHPLTKTLPILMLTAQGDISAKIAGFEAGANDYLAKPFEPQELVYRVKNILARTTIETPTTPVQRGKVITVFGAKGGVGKTTIAVSVALALRLRSRRRVVIVDADLTFGDVAVHLNIAPTRSIIDIVRSGDEIEQEMVKQVLLSHPSGLQALLAPPRPEEAELVSAEHMTRILDLLAVNADYVVVDCQTSYDDRTLSVFDRTDHVLLVITPEIGPLKNTSLFLSLANQLGIDPRAISIVLNRSNSGVGIGVNEIERVLRRKINYHVMSGGQPVVTAVNRGTPLILEQPKHPFVQQILYLADQMMKQLDTNQNVQTDTVTR, MGSDKIHHHHHHMKPQLIASCWTSAGDAAPDRDDLSSPVAIDERIALVAETGWAGIGLVHADLIKARDTIGYEELRRRIHAAGIEIIEVEFLNGWWATGAERQESDAVRADLFAAAQALGSPHIKVGAGEGTNGVVPIAHMASAFTDLAAEAEAHGVKLALEATPFSHLKTIYDALEVVSHSDSPSAGLMVDIWHTAKIGIPNDELWRNIPLSKVNAVEVDDGFIDTPIDLFDDSTNRRAYCGEGEFDPASFIRGAIDAGWTGAYGVEIISAEHRSLPVKEGLQRAFDTTIAAFEQAARLAPSTN, MGSDKIHHHHHHMKQAYIFDMDGTLFQTNRILGHALEDAFDFLRMNGRWTGKTPLAEYQTIMGVSLPEVWQTLLPGHSDEERALVDRIFQDALIRHIEQGQGALYSGAEATLQALKETGHPLYIASNGWKVYLTAIVRQYGLNRWLDGVYSIEDVASSQKSDLVAYILSEHQLTDMVVVGDRISDFQAAKVNRLPAVGCRFDFSNEAELEQADVIIDDLRELFQIDLKAVTK, MGSDKIHHHHHHMKQDRRKLFVLDTNVLLHEPLAIYSFKEHDVVIPMTVLEELDNIKDRKHDISRDARVAIRALEDILGGPTTPEQILKGVPLPSREGHLDVAGSLSIFPDHQVDFIAGALPGDNNDNLIINVALHLQKVHKPRTVVLVTKDINMRLKAKGAGIEKVEDYRTDQLIDDIRFLAKGFYQFEGDFWSKLDKVTTERQGKHTIHHVPIAALGKEAFYLNQYLLDDEANFCGRITGKTDTQLDIIDLGRDRLNHIEAWGIKPKNIYQGMALNALLDPEIDLVILTGPAGCGKTLLAIAAALELVVERKRYDKIIVTRNTPEIAESIGFLPGTEEEKMAPWLAAITDTLEVLHKNDVNPSGSMNYIMEKANIQFKSINFMRGRSIQNSVVLLDECQNLTASQIKTMITRMGEGTKLICCGNLSQIDSTYLTAVTSGLTYIVERFKDFEGSANVYLNGVVRSRLAEYAEEHL, MGSDKIHHHHHHMKQFQIVGIGNALVDVLSHCDDAFLAENGIAKGIMQLIDMGRAVDLYGRIGPAQEISGGSAANTIAGIAQLGGRTAYVGKVCDDQLGAIFAHDLRAQGAVYETPMAPKGGAQETGRCIILVSPDGERSMNTCLGWSEFLTPDDIDEAQMASTEWIYLEGYRFDGPESHAAFAKAIAACRGAGGRVSLTLSDPFCVERHRDAFRRMIREDVDLLFANRAEILSMYRTEDFGAALKAAAAEVAIVACTESEKGAHILADGQHWHVPALPTQIVDATGAGDLFAGAFLWGLTHGHGYETAGRMGCIAASEVISHLGARPEADLRALFRAQGVL, MGSDKIHHHHHHMKRAYAMPLTNPSFPPGPYRFFDREYIIITYRTTREALEAVVPAPLEIDEPLVKYEFIRMPDSTGFGDYTETGQVIPVKYKGQHGGYVHSMYLDDDAPIAGGRELWGFPKKLANPKIVHEGEVIVGTLHYGSVLCATGTMGYKHREADHDSVLASLAAPNFLIKIIPHVDGGPRICELVRYYLTDITLKEAWTAPAALDLRPHVMADVAKLPVLDIISAVHFKADLTLGLGEVVHDYLSDHNRLATSTTQPEKIRA, MGSDKIHHHHHHMKRKTLPKLLYADAKGNIFDHPHLCMAGMSGSEAVLPESVELIPLPEGSRLFTIPDTPPVAWDEQQRKFVTVASVREGRRPMPVQAVSAFMAPGYVRLLLPACDYSRKKVHLPLWSYTAVGWDEERDCFVVAASRVDTNQNWNPCNYDDRKLDPLVRQRLAEMPHNRLLEQLARCAVDYHCFAAKNLFFRRWEAPLPTSPACNSRCLGCISLQPSDCCPANHERIGFVPTPEEIVELALPHLLEAPEPIVSYGQGCEGDPIMQADTVAEATRRLKAATSRGTVNFNSNGSFPDRIAMLCDAGMDSMRFSMNSVREEVYDRYYRPVGYRFAEVKESVRLAGERGLFTMINYLVSPGVSDSADEVEALLRFIGETGVKMIQMRNLSIDPDFYNKRMGATGRGIGMYRMLERVKREFPHIQYGYYNRTRENFFPAGYEKGWPIR
